{"source": "paper PMC6277417", "about": "(Scientific Reports, 2018)", "binders": {"B1": {"name": "Ab#2_GLP1: DPP-4-resistant GLP-1 analogue peptide fused by the [G4S]3A linker to the light chain of anti-PCSK9 Ab#2 (antibody, V domains shown)", "VH": "QVQLVQSGAEVKKPGASVKVSCKASGYTFTSYYMHWVRQAPGQGLEWMGEIHPSGGRTNYNEKFKSRVTMTRDTSTSTVYMELSSLRSEDTAVYYCARERPLYASDLWGQGTTVTVSS", "VL": "DIQMTQSPSSLSASVGDRVTITCKASQDVHTAVAWYQQKPGKAPKLLIYHASYRYTGVPSRFSGSGSGTDFTFTISSLQPEDIATYYCQQRYSLWRTFGQGTKLEIK", "notes": "also called non-glycosylated Ab#2_GLP1 fusion; source: CHO cells, transient co-transfection, purified (Protein A MabSelectSure)"}, "B2": {"name": "anti-PCSK9 antibody Ab#2 (antibody, V domains shown)", "VH": "B1 VH", "VL": "B1 VL", "notes": "also called anti-PCSK9 Ab#2; source: CHO cells, transient co-transfection, purified (Protein A MabSelectSure)"}}, "key": {"[1]": {"molecular_target": "T1, recombinant human PCSK9 (proprotein convertase subtilisin/kexin type 9) (human, UniProt Q8NBP7)", "T1 construct": "also called recombinant PCSK9; source: recombinant", "assay": "SPR; sensorgrams of recombinant human PCSK9 binding to Ab#2 and to Ab#2_GLP1; typical of 8 independent experiments; set-up and conditions not told in the main text", "conditions": "both partners purified"}, "[2]": {"molecular_target": "human GLP-1 receptor on stably transfected CHO cells (human) (UniProt P43220)", "sequence (P43220 24-463)": "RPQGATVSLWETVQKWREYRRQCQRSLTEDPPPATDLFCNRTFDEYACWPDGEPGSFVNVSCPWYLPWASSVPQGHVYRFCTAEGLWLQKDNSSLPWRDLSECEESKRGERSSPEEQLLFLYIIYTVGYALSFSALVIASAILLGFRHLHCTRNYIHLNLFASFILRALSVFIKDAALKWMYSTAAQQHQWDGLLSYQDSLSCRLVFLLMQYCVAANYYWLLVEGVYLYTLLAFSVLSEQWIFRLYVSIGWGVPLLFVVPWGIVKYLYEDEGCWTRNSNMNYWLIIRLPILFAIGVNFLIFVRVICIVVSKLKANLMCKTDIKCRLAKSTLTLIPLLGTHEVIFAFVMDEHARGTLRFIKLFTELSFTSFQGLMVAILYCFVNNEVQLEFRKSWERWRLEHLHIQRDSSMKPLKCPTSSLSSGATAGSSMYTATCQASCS"}}, "data": [{"binder": "B1", "values": [{"measurement": "binding result", "setting": "[1]", "result": "binds"}, {"measurement": "potency in the cAMP accumulation assay, CHO cells expressing human GLP-1R", "setting": "[2]", "result": 87, "unit": "pM"}]}, {"binder": "B2", "values": [{"measurement": "binding result", "setting": "[1]", "result": "binds"}]}]}
